Results as given in article PMC2440032 (2008).

Target: T1, odorranalectin (Odorrana grahami)
T1 chain: YASPKCFRYPNGVLACT
Test: SPR; glycans on fetuin (lectin-type recognition of a glycoprotein); calcium not required

B1: fetuin (protein)
chain: IPLDPVAGYKEPACDDPDTEQAALAAVDYINKHLPRGYKHTLNQIDSVKVWPRRPTGEVYDIEIDTLETTCHVLDPTPLANCSVRQQTQHAVEGDCDIHVLKQDGQFSVLFTKCDSSPDSAEDVRKLCPDCPLLAPLNDSRVVHAVEVALATFNAESNGSYLQLVEISRAQFVPLPVSVSVEFAVAATDCIAKEVVDPTKCNLLAEKQYGFCKGSVIQKALGGEDVRVTCTLFQTQPVIPQPQPDGAEAEAPSAVPDAAGPTPSAAGPPVASVVVGPSVVAVPLPLHRAHYDLRHTFSGVASVESSSGEAFHVGKTPIVGQPSIPGGPVRLCPGRIRYFKI
  Kd: 211 nM
